Test [1] concerns the target Cd200R (Rattus norvegicus) (UniProt Q9ES58). The settings on record: cited from earlier work.
For test [2], the target named is T1, biotinylated rat Cd200R monomeric bait (rat, UniProt Q9ES58 24-239, biotin on a specific lysine of the C-terminal BirA acceptor peptide (enzymatic monobiotinylation)).
T1 chain: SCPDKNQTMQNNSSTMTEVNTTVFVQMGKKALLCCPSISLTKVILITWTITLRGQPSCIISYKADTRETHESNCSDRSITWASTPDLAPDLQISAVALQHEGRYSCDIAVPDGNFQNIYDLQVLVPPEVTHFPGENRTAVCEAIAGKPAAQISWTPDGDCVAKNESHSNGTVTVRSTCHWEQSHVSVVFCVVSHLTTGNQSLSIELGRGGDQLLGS
In words: ELISA; printed as log IC50 = -9.6; direct binding of pentameric prey to immobilised bait. On the technique in general: ELISA stands for enzyme-linked immunosorbent assay.

Test [3] addresses T2, biotinylated rat Cd200R monomeric bait (rat, UniProt Q9ES58 24-239, biotin on a specific lysine of the C-terminal BirA acceptor peptide (enzymatic monobiotinylation)).
T2 construct: Cd200R (CD200 receptor 1), rat, ectodomain; Captured on streptavidin-coated plates by its biotin; also called Cd200R bait; source: HEK293E, transient transfection with BirA plasmid, secreted; purified; not shown: rat Cd4 domains 3+4, C-terminal, kept; BirA biotin acceptor peptide, C-terminal, kept
T2 sequence (looked up): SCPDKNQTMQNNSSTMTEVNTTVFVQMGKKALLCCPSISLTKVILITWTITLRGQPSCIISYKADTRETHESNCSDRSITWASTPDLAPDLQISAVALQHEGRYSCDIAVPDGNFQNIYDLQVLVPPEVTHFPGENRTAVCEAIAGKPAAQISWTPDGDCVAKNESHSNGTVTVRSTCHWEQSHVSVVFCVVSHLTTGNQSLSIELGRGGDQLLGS
In words: ELISA; AVEXIS: dilution series of pentameric beta-lactamase prey on a fixed quantity of monomeric mono-biotinylated bait on a streptavidin-coated 96-well plate; 1 h at room temperature, washes in PBS / 0.1% Tween-20; nitrocefin, absorbance at 485 nm. Conditions: both partners purified.

Test [4] deals with T3, biotinylated Cd200R Gaussia luciferase pentamer (bait) (rat, UniProt Q9ES58 24-239, biotin on a specific lysine of the C-terminal BirA acceptor peptide (enzymatic biotinylation)).
T3 construct: Cd200R (CD200 receptor 1), rat, ectodomain; also called Cd200R Gaussia luciferase-tagged pentamer; source: HEK293E, transient transfection with BirA plasmid, secreted; purified; not shown: rat Cd4 domains 3+4, C-terminal, kept; five concatenated Gaussia luciferase units (AAG54095 residues K18-D185), C-terminal, kept; BirA biotin acceptor peptide, C-terminal, kept
T3 sequence (looked up): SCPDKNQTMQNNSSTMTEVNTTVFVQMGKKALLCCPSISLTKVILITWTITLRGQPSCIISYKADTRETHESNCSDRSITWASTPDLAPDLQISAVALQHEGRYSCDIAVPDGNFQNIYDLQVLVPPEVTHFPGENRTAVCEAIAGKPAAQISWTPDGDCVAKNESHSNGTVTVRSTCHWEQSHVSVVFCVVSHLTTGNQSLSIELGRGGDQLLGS
In words: ELISA; AVEXIS: dilution series of biotinylated Gaussia luciferase pentamer immobilised as bait on a streptavidin-coated plate, probed with beta-lactamase-tagged pentameric prey; nitrocefin read-out. Conditions: both partners purified.

The target in test [5] is T1, biotinylated rat Cd200R monomeric bait. Briefly: ELISA; printed as log IC50 = -9.9; direct binding of pentameric prey to immobilised bait.
Test [6] has as its target T2, biotinylated rat Cd200R monomeric bait. In words: ELISA; AVEXIS: dilution series of pentameric nano-luciferase prey on a fixed quantity of monomeric mono-biotinylated bait on a streptavidin-coated 96-well plate; 1 h at room temperature; furimazine, luminescence. The settings on record: both partners purified.
Test [7] concerns the target T3, biotinylated Cd200R Gaussia luciferase …. Briefly: ELISA; AVEXIS, single construct: dilution series of biotinylated Gaussia luciferase pentamer bait on a streptavidin-coated plate, inactivated with coelenterazine, probed with non-biotinylated Gaussia luciferase pentamer prey; coelenterazine, luminescence. Conditions: both partners purified.
Test [8] concerns the target T2, biotinylated rat Cd200R monomeric bait. In words: ELISA; AVEXIS: dilution series of pentameric Gaussia luciferase prey on a fixed quantity of monomeric mono-biotinylated bait on a streptavidin-coated 96-well plate; 1 h at room temperature; coelenterazine, luminescence. Conditions: both partners purified.

The values below come from paper PMC7324543, “Rapid and sensitive large-scale screening of low affinity extracellular receptor protein interactions by using reaction induced inhibition of Gaussia luciferase” (Scientific Reports, 2020).

By Kd is commonly meant the concentration at which binding is half-saturated. A word on the IC50: it is the concentration that inhibits the measured activity by half. A lower IC50 goes with greater potency.

Consider Cd200 (from UniProt P04218), for which, in test [1], the Kd is 2500 nM.

B1: rat Cd200 beta-lactamase pentameric prey (domain or fragment, UniProt P04218 31-232, looked up)
chain: QVEVVTQDERKLLHTTASLRCSLKTTQEPLIVTWQKKKAVGPENMVTYSKAHGVVIQPTYKDRINITELGLLNTSITFWNTTLDDEGCYMCLFNMFGSGKVSGTACLTLYVQPIVHLHYNYFEDHLNITCSATARPAPAISWKGTGSGIENSTESHSHSNGTTSVTSILRVKDPKTQVGKEVICQVLYLGNVIDYKQSLDKG
notes: Cd200 (OX-2 membrane glycoprotein), rat, extracellular region (ectodomain); Original AVEXIS prey format; Pentamer through COMP; also called Cd200 beta-lactamase tagged prey; beta-lactamase-tagged Cd200 pentamer; source: HEK293E, transient transfection, secreted; not shown: rat Cd4 domains 3+4, C-terminal, kept; beta-lactamase (WP_125075679 residues H19-W282), C-terminal, kept
Molecule B1 showed an IC50 in test [2] of 0.25 nM. The binding result in test [3] and in test [4] was “binds” throughout.

B2: rat Cd200 nano-luciferase pentameric prey (domain or fragment, UniProt P04218 31-232, looked up)
chain: QVEVVTQDERKLLHTTASLRCSLKTTQEPLIVTWQKKKAVGPENMVTYSKAHGVVIQPTYKDRINITELGLLNTSITFWNTTLDDEGCYMCLFNMFGSGKVSGTACLTLYVQPIVHLHYNYFEDHLNITCSATARPAPAISWKGTGSGIENSTESHSHSNGTTSVTSILRVKDPKTQVGKEVICQVLYLGNVIDYKQSLDKG
notes: Cd200 (OX-2 membrane glycoprotein), rat, extracellular region (ectodomain); also called NanoLuc prey; Nano luciferase prey; source: HEK293E, transient transfection, secreted; not shown: rat Cd4 domains 3+4, C-terminal, kept; five concatenated nano-luciferase units (AHH41346 residues V2-T171), C-terminal, kept
B2 gave an IC50 in test [5] of 0.126 nM. Moreover, in test [6], the binding result is “binds”.

B3: rat Cd200 Gaussia luciferase pentameric prey (domain or fragment, UniProt P04218 31-232, looked up)
chain: QVEVVTQDERKLLHTTASLRCSLKTTQEPLIVTWQKKKAVGPENMVTYSKAHGVVIQPTYKDRINITELGLLNTSITFWNTTLDDEGCYMCLFNMFGSGKVSGTACLTLYVQPIVHLHYNYFEDHLNITCSATARPAPAISWKGTGSGIENSTESHSHSNGTTSVTSILRVKDPKTQVGKEVICQVLYLGNVIDYKQSLDKG
notes: Cd200 (OX-2 membrane glycoprotein), rat, extracellular region (ectodomain); also called Cd200 Gaussia luciferase fusion pentamer; GLuc prey; source: HEK293E, transient transfection, secreted; not shown: rat Cd4 domains 3+4, C-terminal, kept; five concatenated Gaussia luciferase units (AAG54095 residues K18-D185), C-terminal, kept
Take B3: the IC50 in test [5] is 0.126 nM. The binding result in test [7] and in test [8] was “binds” throughout.
